Experimental data as given in article PMC2696590 (2009).

B1: [^3H]-neurotensin [modified: pyroGlu at position 1; [3,11-tyrosyl-3,5-^3H(N)] (tritium on Tyr3 and Tyr11); pyroGlu at position 1; [3,11-tyrosyl-3,5-^3H(N)] (tritium on Tyr3 and Tyr11)] [not stated] / wild-type NTS1 (N-terminally truncated … (parent complex)
chain 1: not shown
chain 2: TSESDTAGPNSDLDVNTDIYSKVLVTAIYLALFVVGTVGNSVTAFTLARKKSLQSLQSTVHYHLGSLALSDLLILLLAMPVELYNFIWVHHPWAFGDAGCRGYYFLRDACTYATALNVASLSVERYLAICHPFKAKTLMSRSRTKKFISAIWLASALLAIPMLFTMGLQNRSGDGTHPGGLVCTPIVDTATVKVVIQVNTFMSFLFPMLVISILNTVIANKLTVMVHQAAEQGRVCTVGTHNGLEHSTFNMTIEPGRVQALRHGVLVLRAVVIAFVVCWLPYHVRRLMFCYISDEQWTTFLFDFYHYFYMLTNALFYVSSAINPILYNLVSANFRQVFLSTLACLCPGWRHRRKKRPTFSRKPNSMSSNHAFSTSATRETLY

Variants of: B1
Assay: saturation binding assay on intact E. coli cells; intact E. coli cells

Q: Which Kd does the source give for chain 2 A44L, chain 2 F316A here?
A: 0.1 nM
